Experimental data as given in PMC11662680.
Substitutions are numbered along the chain they refer to. Where two headings read alike, the source gives them in different places.

Tests used:
[1] = molecular target: CapW from Rhizobium leguminosarum (Rhizobium leguminosarum); test: crystal structure
Ec CapW WT = molecular target: T1, Ec CapW WT (Escherichia coli upec-117, UniProt P0DX76 1-299); test: fluorescence polarization
T1 sequence: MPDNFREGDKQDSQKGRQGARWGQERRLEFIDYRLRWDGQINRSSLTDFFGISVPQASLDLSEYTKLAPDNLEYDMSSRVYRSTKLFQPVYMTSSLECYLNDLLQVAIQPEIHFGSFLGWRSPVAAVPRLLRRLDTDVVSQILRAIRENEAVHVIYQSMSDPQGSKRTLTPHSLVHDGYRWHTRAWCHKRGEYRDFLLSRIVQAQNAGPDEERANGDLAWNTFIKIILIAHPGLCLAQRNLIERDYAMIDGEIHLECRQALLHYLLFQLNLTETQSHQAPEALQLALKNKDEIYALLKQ

Ec CapW R200A [2] = molecular target: T2, Ec CapW R200A (Escherichia coli upec-117, UniProt P0DX76 1-299, R200A); test: fluorescence polarization
T2 sequence: T1 sequence with R200A

Ec CapW S158E [3] = molecular target: T3, Ec CapW S158E (Escherichia coli upec-117, UniProt P0DX76 1-299, S158E); test: fluorescence polarization
T3 sequence: T1 sequence with S158E

Rl CapW WT = molecular target: T4, Rl CapW WT (Rhizobium leguminosarum, UniProt PDB:9C5G_1 1-299); test: X-ray crystallography
T4 sequence: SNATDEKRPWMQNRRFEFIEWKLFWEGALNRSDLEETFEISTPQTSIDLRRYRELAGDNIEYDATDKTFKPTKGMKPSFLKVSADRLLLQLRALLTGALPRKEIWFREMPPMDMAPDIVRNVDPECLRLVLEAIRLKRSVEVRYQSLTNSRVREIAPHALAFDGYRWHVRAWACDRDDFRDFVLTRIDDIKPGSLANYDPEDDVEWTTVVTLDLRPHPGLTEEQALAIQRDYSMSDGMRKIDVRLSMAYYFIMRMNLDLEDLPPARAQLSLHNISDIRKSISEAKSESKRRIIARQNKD

Ec CapW R200A [4] = molecular target: T2, Ec CapW R200A; test: fluorescence polarization; remark: listed apart in the source
Ec CapW S158E [5] = molecular target: T3, Ec CapW S158E; test: fluorescence polarization; remark: listed apart in the source

With “CapW from Rhizobium leguminosarum (natural protein)” as the molecule, how does the stoichiometry N [1] read?
Its stoichiometry N is 2.

Does UUUUUUU (ssRNA) [7mer poly-U RNA] bind (Ec CapW WT)?
Result: no binding

Does AAAAAAA (ssDNA) [7mer poly-A] bind (Ec CapW WT)?
Result: no binding

Which results are given for TTTTTTT (ssDNA) [7mer poly-T, FAM]?
binding result (Ec CapW R200A [2]): no binding; binding result (Ec CapW S158E [3]): no binding

Does TTTTTTT (ssDNA) [7mer poly-T, unlabeled] bind (Rl CapW WT)?
Result: binds

B1: CapW 30 bp palindromic binding site (dsDNA)
DNA 1: TAAAAACTGATCGTATAATAATGCTACGCT
DNA 2: AGCGTAGCATTATTATACGATCAGTTTTTA
Does B1 bind (Ec CapW R200A [4])?
Result: binds

Does B1 bind (Ec CapW S158E [5])?
Result: binds
